{"source": "paper PMC6323126", "about": "(2019)", "parents": {"B1": {"name": "SIKE1 (recombinant, limits not stated) [human] / SLMAP (recombinant, limits not stated for the experiment) [human] (parent complex)", "chain 1": "MSCTIEKILTDAKTLLERLREHDAAAESLVDQSAALHRRVAAMREAGTALPDQYQEDASDMKDMSKYKPHILLSQENTQIRDLQQENRELWISLEEHQDALELIMSKYRKQMLQLMVAKKAVDAEPVLKAHQSHSAEIESQIDRICEMGEVMRKAVQVDDDQFCKIQEKLAQLELENKELRELLSISSESLQARKENSMDTASQAIK", "chain 2": "YSQELFQLSQYLQEALHREQMLEQKLATLQRLLAITQEASDTSWQALIDEDRLLSRLEVMGNQLQACSKNQTEDSLRKELIALQEDKHNYETTAKESLRRVLQEKIEVVRKLSEVERSLSNTEDECTHLKEMNERTQEELRELANKYNGAVNEIKDLSDKLKVAEGKQEEIQQKGQAEKKELQHKIDEMEEKEQELQAKIEALQADNDFTNERLTALQVRLEHLQEKTLKECSSLEHLLSKSGGDCTFIHQFIECQKKLIVEGHLTKAVEETKLSKENQTRAKESDFSDTLSPSKEKSSDDTTDAQMDEQDLNEPLAKVSLLKDDLQGAQSEIEAKQEIQHLRKELIEAQELARTSKQKCFELQALLEEERKAYRNQVEESTKQIQVLQAQLQRLHIDTENLREEKDSEITSTRDELLSARDEILLLHQAAAKVASERDTDIASLQEELKKVRAELERWRKAASEYEKEITSLQNSFQLRCQQCEDQQREEATRLQGELEKLRKEWNALETECHSLKRENVLLSSELQRQEKELHNSQKQSLELTSDLSILQMSRKELENQVGSLKEQHLRDSADLKTLLSKAENQAKDVQKEYEKTQTVLSELKLKFEMTEQEKQSITDELKQCKNNLKLLREKGNNKP"}}, "data": [{"variants_of": "B1", "assay": "BLI; read at the end of association (about 360 s); parent: 0.13; read off a plot", "units": {"response": "nm"}, "values": [{"variant": "chain 1 MSCTIEKILTDAKTLLERDREHDAAAESLVDQSAALHRRVAAMREAGTALPDQYQEDASDMKDMSKYKPHILLSQENTQIRDLQQENRELWISLEEHQDALELIMSKYRKQMLQLMVAKKAVDAEPVLKAHQSHSAEIESQIDRICEMGEVMRKAVQVDDDQFCKIQEKLAQLELENKELRELLSISSESLQARKENSMDTASQAIK", "note": "[chain 1 L19D]", "response": "~0.045"}, {"variant": "chain 1 MSCTIEKILTDAKTDLERDREHDAAAESLVDQSAADHRRVAAEREAGTALPDQYQEDASDMKDMSKYKPHILLSQENTQIRDLQQENRELWISLEEHQDALELIMSKYRKQMLQLMVAKKAVDAEPVLKAHQSHSAEIESQIDRICEMGEVMRKAVQVDDDQFCKIQEKLAQLELENKELRELLSISSESLQARKENSMDTASQAIK", "note": "[chain 1 L15D, chain 1 L19D, chain 1 L36D, chain 1 M43E]", "response": "~0.02"}, {"variant": "chain 1 MSCTIEKILTDAKTLLERLREHDAAAESLVDQSAADHRRVAAMREAGTALPDQYQEDASDMKDMSKYKPHILLSQENTQIRDLQQENRELWISLEEHQDALELIMSKYRKQMLQLMVAKKAVDAEPVLKAHQSHSAEIESQIDRICEMGEVMRKAVQVDDDQFCKIQEKLAQLELENKELRELLSISSESLQARKENSMDTASQAIK", "note": "[chain 1 L36D]", "response": "~0"}, {"variant": "chain 1 MSCTIEKILTDAKTDLERLREHDAAAESLVDQSAALHRRVAAMREAGTALPDQYQEDASDMKDMSKYKPHILLSQENTQIRDLQQENRELWISLEEHQDALELIMSKYRKQMLQLMVAKKAVDAEPVLKAHQSHSAEIESQIDRICEMGEVMRKAVQVDDDQFCKIQEKLAQLELENKELRELLSISSESLQARKENSMDTASQAIK", "note": "[chain 1 L15D]", "response": "~0.045"}, {"variant": "chain 1 MSCTIEKILTDAKTLLERLREHDAAAESLVDQSAALHRRVAAEREAGTALPDQYQEDASDMKDMSKYKPHILLSQENTQIRDLQQENRELWISLEEHQDALELIMSKYRKQMLQLMVAKKAVDAEPVLKAHQSHSAEIESQIDRICEMGEVMRKAVQVDDDQFCKIQEKLAQLELENKELRELLSISSESLQARKENSMDTASQAIK", "note": "[chain 1 M43E]", "response": "~0.05"}]}]}
